T1: endogenous eosinophil eotaxin receptor (CC CKR3) on primary human eosinophils (human, UniProt P51677 1-355)
T1 construct: The target as printed is 'eosinophils' (primary cells from allergic and asthmatic donors); It also says eosinophils express a much lower level of CC CKR1; also called primary eosinophils
T1 sequence: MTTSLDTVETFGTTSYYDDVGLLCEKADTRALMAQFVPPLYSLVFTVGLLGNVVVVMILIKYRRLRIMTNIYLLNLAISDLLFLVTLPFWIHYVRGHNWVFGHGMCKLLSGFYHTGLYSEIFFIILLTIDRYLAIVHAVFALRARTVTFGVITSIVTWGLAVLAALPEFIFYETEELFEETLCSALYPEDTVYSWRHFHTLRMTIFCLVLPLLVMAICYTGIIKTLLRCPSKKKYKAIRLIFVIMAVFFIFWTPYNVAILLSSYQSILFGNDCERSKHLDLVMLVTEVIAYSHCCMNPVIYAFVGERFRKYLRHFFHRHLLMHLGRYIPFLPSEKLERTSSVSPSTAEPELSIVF

T2: human eosinophil eotaxin receptor CC CKR3, stably expressed in AML14.3D10 cells (human, UniProt P51677 1-355)
T2 construct: Full-length cDNA in pBJ/NEO transfected into the AML14.3D10 eosinophilic line; also called AML14/CCCKR3.16
T2 sequence: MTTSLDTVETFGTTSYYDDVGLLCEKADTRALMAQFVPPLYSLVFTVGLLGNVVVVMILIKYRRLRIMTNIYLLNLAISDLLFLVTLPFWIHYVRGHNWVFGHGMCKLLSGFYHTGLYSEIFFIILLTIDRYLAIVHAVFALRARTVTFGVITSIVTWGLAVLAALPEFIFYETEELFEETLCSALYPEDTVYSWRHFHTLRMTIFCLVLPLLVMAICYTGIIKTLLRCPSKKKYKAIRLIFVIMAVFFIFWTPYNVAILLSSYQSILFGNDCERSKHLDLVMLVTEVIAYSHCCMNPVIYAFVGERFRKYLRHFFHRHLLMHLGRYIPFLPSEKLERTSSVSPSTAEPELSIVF

B1: human eotaxin (ligand)
chain: not shown
B2: murine eotaxin (ligand, UniProt P48298 24-97, looked up)
chain: HPGSIPTSCCFIMTSKKIPNTLLKSYKRITNNRCTLKAIVFKTRLGKEICADPKKKWVQDATKHLDQKLQTPKP
B3: RANTES (ligand, UniProt P13501 24-91, looked up)
chain: SPYSSDTTPCCFAYIARPLPRAHIKEYFYTSGKCSNPAVVFVTRKNRQVCANPEKKWVREYINSLEMS
B4: MCP-3 (ligand)
chain: not shown
B5: MIP-1β (ligand, UniProt P13236 24-92, looked up)
chain: APMGSDPPTACCFSYTARKLPRNFVVDYYETSSLCSQPAVVFQTKRSKQVCADPSESWVQEYVYDLELN
notes: also called macrophage inflammatory protein 1β
B6: MIP-1α (ligand, UniProt P10147 24-92, looked up)
chain: SLAADTPTACCFSYTSRQIPQNFIADYFETSSQCSKPGVIFLTKRSRQVCADPSEEWVQKYVSDLELSA
notes: also called macrophage inflammatory protein 1α

Assays:
[1] = target: T1, endogenous eosinophil eotaxin receptor …; experiment: competition against 125I-MCP-3, primary eosinophils
Description: (§1) To provide additional pharmacological evidence, binding studies were conducted on primary eosinophils. […] The number of binding sites varied by less than 2-fold for the 3 donors used in the studies. […] Similarly, the Kd's obtained by competition against ¹²⁵I-MCP-3 on eosinophils are effectively indistinguishable to those measured against cloned CC CKR3 (see Table 1). All of the observations and measurements, taken together with the Western blot showing expression of CC CKR3, verify that CC CKR3 is the eosinophil eotaxin receptor, and appears to be largely responsible for mediating the effects of most β-chemokines on eosinophils.
(§2) Competition binding experiments were carried out against the indicated iodinated ligand as follows and as described herein. Equilibrium binding of β-chemokines to AML14.3D10 cells expressing CC CKR3 and to primary eosinophils was examined with increasing concentrations of unlabelled human eotaxin, murine eotaxin, RANTES, MCP-3, or MCP-1 to compete against fixed concentrations of either ¹²⁵I-human eotaxin, or ¹²⁵I-MCP-3. Also the competition with 100 nM concentrations of MIP-1α, and MIP-1β was examined. The experiments were carried out either with AML14.3D10 cells expressing CC CKR3, or with eosinophils. All values are the averages of triplicate determinations. Typically, 4000-6000 cpm of iodinated ligand was bound in the absence of compeititor with S/N ratios exceeding 15. Human and murine eotaxin are the human and murine chemokines, respectively. “N.B.” means that no competition was observed. All results are the averages of the number of experiments shown in parenthesis.

[2] = target: T2, human eosinophil eotaxin receptor CC …; experiment: competition against 125I-human eotaxin, intact AML14.3D10 cells expressing CC CKR3
Description: (§3) Results with murine eotaxin were essentially identical. […] Clearly, CC CKR3 is a high affinity receptor for eotaxin.
as §2

[3] = target: T1, endogenous eosinophil eotaxin receptor …; experiment: competition against 125I-human eotaxin, primary eosinophils
Description: as §1, §2

[4] = target: T2, human eosinophil eotaxin receptor CC …; experiment: competition against 125I-MCP-3, intact AML14.3D10 cells expressing CC CKR3
Description: Competition studies were also carried out against ¹²⁵I-MCP-3. […] Thus despite some small quantitative differences the overall ligand selectivity of the receptor is the same whether measured by competition against eotaxin or MCP-3, and the order of potency, eotaxin>MCP-3=RANTES>>MCP-1, is identical.
as §2

[5] = target: T2, human eosinophil eotaxin receptor CC …; experiment: cell-based or functional assay
[6] = target: T1, endogenous eosinophil eotaxin receptor …; experiment: competition against 125I-human eotaxin on primary eosinophils
Description: as §1
Competition binding experiments were carried out against the indicated iodinated ligand as follows and as described herein. Equilibrium binding of β-chemokines to AML14.3D10 cells expressing CC CKR3 and to primary eosinophils was examined with increasing concentrations of unlabelled human eotaxin, murine eotaxin, RANTES, MCP-3, or MCP-1 to compete against fixed concentrations of either ¹²⁵I-human eotaxin, or ¹²⁵I-MCP-3. Also the competition with 100 nM concentrations of MIP-1α, and MIP-1β was examined. The experiments were carried out either with AML14.3D10 cells expressing CC CKR3, or with eosinophils. All values are the averages of triplicate determinations. […]

[7] = target: T2, human eosinophil eotaxin receptor CC …; experiment: competition against 125I-human eotaxin on AML14.3D10 cells expressing CC CKR3
Description: as §3, §2

Row | Binder | Kd [1] | Kd [2] | Kd [3] | Kd [4] | Ca^2+-flux (intracellular Ca^2+ levels) [5] | binding result [6] | binding result [7]
1 | B1 | 0.2 nM | 0.1 nM | 0.1 nM | 0.2 nM |  |  | 
2 | B2 | 0.2 nM | 0.1 nM | 0.1 nM | 0.3 nM |  |  | 
3 | B3 | 0.9 nM | 3.1 nM | 2.6 nM | 0.5 nM |  |  | 
4 | B4 | 1.1 nM | 2.7 nM | 3 nM | 0.7 nM |  |  | 
5 | B5 |  |  |  |  | > 1 µM | no binding (tested: 100 nM) | no binding (tested: 100 nM)
6 | B6 |  |  |  |  | > 1 µM | no binding (tested: 100 nM) | no binding (tested: 100 nM)

Reference: patent US20020192214A1 (published 2002)
